The text below walks through data of publication PMC8775935, “Chebulinic Acid Suppresses Adipogenesis in 3T3-L1 Preadipocytes by Inhibiting PPP1CB Activity” (International Journal of Molecular Sciences, 2022).

Substrate in the data set: Cc1cc(=O)oc2c(F)c(OP(=O)(O)O)c(F)cc12
Put plainly: enzyme kinetics, fluorescence of DiFMU product; KM. The data set is classed as biochemical, Homo sapiens. To be noted: Mn2+ ([…] MnCl2 in buffer).

The Km is the concentration of substrate that gives half-maximal velocity. Broadly, the Vmax is the rate approached at saturating substrate. What is called kcat is the maximal rate divided by the concentration of active sites. Broadly, the kcat/Km is the turnover number divided by the Michaelis constant.

B1: protein phosphatase-1 catalytic subunit beta (PPP1CB) (Homo sapiens) (protein)
chain: MADGELNVDSLITRLLEVRGCRPGKIVQMTEAEVRGLCIKSREIFLSQPILLELEAPLKICGDIHGQYTDLLRLFEYGGFPPEANYLFLGDYVDRGKQSLETICLLLAYKIKYPENFFLLRGNHECASINRIYGFYDECKRRFNIKLWKTFTDCFNCLPIAAIVDEKIFCCHGGLSPDLQSMEQIRRIMRPTDVPDTGLLCDLLWSDPDKDVQGWGENDRGVSFTFGADVVSKFLNRHDLDLICRAHQVVEDGYEFFAKRQLVTLF
In the case of B1, the Km was found to be 186.2 µM, the Vmax is 3.4 µM/min, the kcat worked out at 38.3 s⁻¹ and the kcat/Km amounted to 210000 M⁻¹ s⁻¹.
